How the values were obtained:
[1] = target: EhODC Cys334Ala mutant (Entamoeba histolytica); assay: SEC; gel filtration of the active-site mutants, data not shown
[2] = target: EhODC Gly361Tyr mutant (Entamoeba histolytica); assay: SEC; HiLoad 16/60 Superdex 200, buffer B (50 mM Tris-HCl pH 7.5, 250 mM NaCl, 0.2 mM DTT, 5% glycerol), 500 µl of ~10 mg/ml protein, 0.5 ml/min, calibrated with HMW standards; the wild type was also run after 4 h at 4°C with 2 M or 4 M NaCl or urea (partial dissociation to monomer)
[3] = target: EhODC Lys57Ala mutant (Entamoeba histolytica); assay: SEC; gel filtration of the active-site mutants, data not shown
[4] = target: EhODC Cys334Ala mutant (Entamoeba histolytica)
[5] = target: EhODC Lys157Ala mutant (Entamoeba histolytica); assay: SEC; HiLoad 16/60 Superdex 200, buffer B (50 mM Tris-HCl pH 7.5, 250 mM NaCl, 0.2 mM DTT, 5% glycerol), 500 µl of ~10 mg/ml protein, 0.5 ml/min, calibrated with HMW standards; the wild type was also run after 4 h at 4°C with 2 M or 4 M NaCl or urea (partial dissociation to monomer)
[6] = target: the molecule itself; assay: cross-linking; glutaraldehyde vapour (12.5%, acidified) over a hanging drop of 15 µl protein at 1 mg/ml in 20 mM sodium phosphate pH 7.5, 37°C, 10 min; 12% SDS-PAGE, Coomassie

EhODC Cys334Ala mutant (enzyme)
stoichiometry N [1]: 2

EhODC Gly361Tyr mutant (enzyme)
stoichiometry N [2]: 2

EhODC Lys57Ala mutant (enzyme)
stoichiometry N [3]: 2
ornithine decarboxylase activity (colorimetric DAO/HRP assay) of the two inactive mutants mixed in equal concentration (1:1), relative to wild type; each mutant alone ~2% (% of wild-type activity) [4]: 29

EhODC Lys157Ala mutant (enzyme)
stoichiometry N [5]: 2

B1: Ornithine decarboxylase from Entamoeba histolytica (EhODC), wild type (enzyme, UniProt Q58P26 1-413, looked up)
chain: MKQTSLEVKEFALNLISQFEPENQPLGFWIFDTEGVEKAVERWKKNMPTVRPCFAVKCNPEPHLVKLLGELGCGFDCASLNEIKEVLDLGFNPEDITYSQTFKPYNQLIEASHLGINHTIVDSIDEVQKIAKYAPKMGIMIRIMENDTSAGHVFGEKFGLHDDEVEIVLKEIKDKGLNLDGVHFHVGSDSHNSEVFTKALTKARNTVTLAEQFGMKPYLIDIGGGFSQVAPFEEFAATIEKTIKELEFPERTRFIAEPGRYMASNAFHLVSSLHGKRVRIQNGKKQIEYTSGDGLHGSFGCCIWFEKQKSCECITQKVNENTKMYESIIYGPSCNGSDKVATQELPEMEPGKDWLLFPNMGAYTISMATNFNGFEERNHVIYTLPLKSTKIIQIPKSIECNSVPSLNGIPHYA
notes: Ornithine decarboxylase, Entamoeba histolytica, NCBI AAX35675, 413 amino acids, predicted 46.43 kDa; full-length gene in pET30a; The His tag is followed by an enterokinase site and was removed before gel filtration; PLP is the cofactor; also called E. histolytica ODC; source: E. coli BL21 (DE3), purified (HisTrap HP, enterokinase cleavage, second HisTrap, Superdex 200); not shown: His6, …
stoichiometry N [6]: 2

Source: PMC3289617, “Biochemical, Mutational and In Silico Structural Evidence for a Functional Dimeric Form of the Ornithine Decarboxylase from Entamoeba histolytica” (PLoS Neglected Tropical Diseases, 2012)
